How the values were obtained:
Test in all cases: ELISA, antigen coated on the plate
Bovine serum albumin = Bovine serum albumin (bovine, UniProt P02769 25-607)
HSA = HSA (UniProt P02768 25-609)
HAc peptide = HAc peptide (Influenza A virus)
Human hemoglobin = Human hemoglobin (human, UniProt P69905 2-142; P68871 2-147)
TP41-1 peptide = biological target: T1, TP41-1 peptide (HIV-1)
T1 peptide: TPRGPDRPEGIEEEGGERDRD

Sequence of Bovine serum albumin (P02769 25-607 limits assumed): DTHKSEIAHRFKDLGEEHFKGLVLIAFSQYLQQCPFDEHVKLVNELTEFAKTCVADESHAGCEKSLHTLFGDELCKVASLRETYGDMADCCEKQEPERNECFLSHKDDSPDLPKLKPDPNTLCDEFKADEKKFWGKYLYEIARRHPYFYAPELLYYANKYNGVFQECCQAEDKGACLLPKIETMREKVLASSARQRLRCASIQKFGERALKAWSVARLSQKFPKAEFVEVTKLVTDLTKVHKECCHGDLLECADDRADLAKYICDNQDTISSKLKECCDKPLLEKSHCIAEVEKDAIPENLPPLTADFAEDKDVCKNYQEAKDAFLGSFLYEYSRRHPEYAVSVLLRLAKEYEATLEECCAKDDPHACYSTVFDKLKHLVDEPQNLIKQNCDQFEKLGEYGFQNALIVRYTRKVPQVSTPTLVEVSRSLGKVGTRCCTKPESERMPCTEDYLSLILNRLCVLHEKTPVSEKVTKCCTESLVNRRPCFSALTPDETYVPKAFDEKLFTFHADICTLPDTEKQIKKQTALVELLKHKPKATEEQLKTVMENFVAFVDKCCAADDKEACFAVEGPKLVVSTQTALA
Sequence of HSA (P02768 25-609): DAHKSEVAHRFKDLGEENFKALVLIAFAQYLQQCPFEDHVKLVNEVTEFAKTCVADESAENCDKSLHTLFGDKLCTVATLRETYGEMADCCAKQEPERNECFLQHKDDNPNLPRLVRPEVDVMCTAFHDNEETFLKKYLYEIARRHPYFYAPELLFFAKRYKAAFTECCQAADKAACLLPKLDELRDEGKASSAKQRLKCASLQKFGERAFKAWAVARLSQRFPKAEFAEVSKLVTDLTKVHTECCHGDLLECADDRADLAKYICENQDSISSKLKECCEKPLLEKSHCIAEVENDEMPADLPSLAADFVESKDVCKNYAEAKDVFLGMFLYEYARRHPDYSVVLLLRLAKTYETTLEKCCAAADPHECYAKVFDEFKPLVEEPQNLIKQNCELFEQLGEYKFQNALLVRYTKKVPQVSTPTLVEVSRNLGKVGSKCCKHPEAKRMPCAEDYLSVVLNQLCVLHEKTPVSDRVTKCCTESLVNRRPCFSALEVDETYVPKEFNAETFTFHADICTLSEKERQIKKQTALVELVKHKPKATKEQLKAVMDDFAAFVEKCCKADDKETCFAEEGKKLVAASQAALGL
Sequence of Human hemoglobin (P69905 2-142 limits assumed, chain 1 of 2): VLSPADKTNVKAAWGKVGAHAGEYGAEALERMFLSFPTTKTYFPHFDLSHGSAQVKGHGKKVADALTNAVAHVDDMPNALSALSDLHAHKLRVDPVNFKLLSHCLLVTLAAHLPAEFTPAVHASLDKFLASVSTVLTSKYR
Sequence of Human hemoglobin (P68871 2-147 limits assumed, chain 2 of 2): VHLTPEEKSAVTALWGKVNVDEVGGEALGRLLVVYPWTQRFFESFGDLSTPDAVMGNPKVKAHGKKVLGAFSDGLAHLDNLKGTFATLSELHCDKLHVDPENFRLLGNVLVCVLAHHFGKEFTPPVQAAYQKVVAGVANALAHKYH

B1: InfA-15 monoclonal antibody (antibody, V domains shown)
VH: QVQLKESGPGLVAPSQSLSITCTVSGFSLTKSGLHWVRQPPGKGLEWLGVIWAGGSTDYNSALTSRLTITKDNSKSQIFFRLNSLQTADTAMYYCVRSTFLYAMDFWGQGTSVTVS
VL: DAVMTQTPLSLPVSLGDQASISCRSSPSLEHSNGNTYLNWYLQKPGQSPQLLIYRVSNRFSGVPDRFSGSGSGTDFTLKISRVEAEDLGVYFCLQVTHVPPTFGGGTKLEIKR
- binding result (Bovine serum albumin): no binding (tested: 4 μg/ml (coated antigen))
- binding result (HSA): no binding (tested: 4 μg/ml (coated antigen))
- binding result (HAc peptide): no binding (tested: 4 μg/ml (coated antigen))
- binding result (Human hemoglobin): no binding (tested: 4 μg/ml (coated antigen))
- binding result (TP41-1 peptide): no binding (tested: 4 μg/ml (coated antigen))

Source: patent JP2011160681A (dated 2011)
